Substitutions are numbered along the chain they refer to. Each block holds one binder with its values, some of them ahead of it.
What was measured:
[1] = target: T1, cynomolgus TNFR2-His tagged protein (cynomolgus, UniProt A0A2K5VET2 132-366); assay: ELISA on coated cynomolgus TNFR2-His
T1 construct: also called Cyno TNFR2; cynomolgus TNFR2 protein; not shown: His tag
T1 sequence: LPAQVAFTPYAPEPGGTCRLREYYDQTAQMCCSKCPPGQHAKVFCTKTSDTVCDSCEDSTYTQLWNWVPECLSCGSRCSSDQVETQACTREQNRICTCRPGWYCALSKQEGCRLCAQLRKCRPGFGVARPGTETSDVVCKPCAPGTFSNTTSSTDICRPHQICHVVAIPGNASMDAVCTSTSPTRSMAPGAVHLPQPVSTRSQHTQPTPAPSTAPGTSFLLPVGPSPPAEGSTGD
Protocol: (§1) In FIGS. 3A-3B, human (3A) or cynomolgus (3B) TNFR2-His tagged protein was coated on 96-well ELISA plates at 1 μg/mL and incubated overnight at 4° C. Plates were washed and blocked using 1% BSA. Antibodies were added for 1 hour at room temperature (RT), washed, and detected using anti-Human HRP. Assay was developed using TMB substrate for 3-5 minutes. In FIG. 3C, FACS binding was performed on CHO cells that were engineered to express human TNFR2. Briefly, antibodies were incubated with 200,000 cells in MACS buffer for 1 hour followed by wash and detection using anti-human IgG BV421 for 20 minutes. Samples were analyzed using Cytoflex or MACSQuant flow cytometers. In FIG. 3D, ligand blocking ELISA was performed by coating plates with 1 ug/mL TNFR-Fc overnight at 4° C. Plates were washed, blocked and antibodies were incubated for 1 hr at RT. […] Assay was developed using TMB substrate for 5-7 minutes.

[2] = target: T2, human TNFR2-His tagged protein (soluble) (human, UniProt P20333 23-257); assay: ELISA on coated human TNFR2-His
T2 construct: also called hTNFR2 (soluble); soluble TNFR2-His; not shown: His tag
T2 sequence (looked up): T1 sequence with G16S, P36S, Q117P, H164N, A210E, G216S, V223M
Protocol: as §1

[3] = target: T3, TNFR2 CRD4 peptide (peptide 5; aa 146-174 of mature TNFR2) (human); assay: peptide-binding ELISA (potential peptide bin)
T3 construct: Range counted on mature TNFR2; also called peptide five; bin 5
T3 peptide: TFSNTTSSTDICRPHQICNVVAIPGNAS

soluble mouse TNFR2 = target: T4, soluble mouse TNFR2 (mouse, UniProt P25119 23-258, limits assumed); assay: binding screen on soluble mouse TNFR2 (mouse cross-reactivity)
T4 sequence (looked up): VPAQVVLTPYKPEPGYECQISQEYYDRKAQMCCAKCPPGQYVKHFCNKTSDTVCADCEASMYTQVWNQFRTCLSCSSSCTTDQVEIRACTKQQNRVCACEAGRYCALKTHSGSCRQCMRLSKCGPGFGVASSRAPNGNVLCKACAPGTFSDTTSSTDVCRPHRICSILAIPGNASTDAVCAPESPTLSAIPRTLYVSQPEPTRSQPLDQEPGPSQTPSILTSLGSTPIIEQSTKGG

[4] = target: T5, human TNFR2 expressed on cells (human, UniProt P20333 23-461); assay: cell binding on TNFR2-overexpressing (OE) cells
T5 construct: whole, on cells; also called hTNFR2 (cell); CHO-TNFR2
T5 sequence (looked up): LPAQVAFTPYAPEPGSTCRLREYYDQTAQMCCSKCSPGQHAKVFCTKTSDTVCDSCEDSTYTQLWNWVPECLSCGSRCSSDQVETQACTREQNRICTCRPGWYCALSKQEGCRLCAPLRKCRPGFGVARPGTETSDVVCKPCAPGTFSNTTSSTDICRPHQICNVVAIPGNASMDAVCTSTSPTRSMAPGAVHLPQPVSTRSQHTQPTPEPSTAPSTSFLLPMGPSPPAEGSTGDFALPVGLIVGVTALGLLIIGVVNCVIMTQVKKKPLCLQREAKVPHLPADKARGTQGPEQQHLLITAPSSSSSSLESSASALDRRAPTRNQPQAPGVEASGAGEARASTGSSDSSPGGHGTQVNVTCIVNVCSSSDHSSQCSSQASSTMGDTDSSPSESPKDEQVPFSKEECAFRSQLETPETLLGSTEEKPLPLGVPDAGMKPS

[5] = target: T1, cynomolgus TNFR2-His tagged protein; assay: ELISA, cynomolgus TNFR2
[6] = target: T5, human TNFR2 expressed on cells; assay: flow cytometry, cell-expressed human TNFR2
[7] = target: T2, human TNFR2-His tagged protein (soluble); assay: ELISA, soluble human TNFR2
TNFR-Fc [8] = target: T6, TNFR-Fc (UniProt P20333 23-257, limits assumed); assay: TNF-α blocking ELISA on coated TNFR-Fc
T6 construct: Printed only as TNFR-Fc; not shown: Fc part
T6 sequence (looked up): T1 sequence with G16S, P36S, Q117P, H164N, A210E, G216S, V223M
Protocol: as §1

[9] = target: T5, human TNFR2 expressed on cells; assay: flow cytometry on CHO cells expressing human TNFR2
Protocol: as §1

[10] = target: T5, human TNFR2 expressed on cells; assay: blocking of biotinylated TNF-α on TNFR2-CHO cells, flow cytometry
Protocol: TNFR2-overexpressing CHO cells were plated at 100,000 cells per well. Cells were incubated with the indicated antibodies for 30 minutes on ice. […] Cells were analyzed using Cytoflex or MACSQuant flow cytometer. Assay was repeated twice.

TNFR-Fc [11] = target: T6, TNFR-Fc; assay: TNF-α blocking ELISA (soluble)

Kd [4]: 1.5 nM
EC50 [5]: 0.091 nM
EC50 [6]: 1.99 nM
EC50 [7]: 0.142 nM
B5: humanized antibody h600_23_24_H (antibody, V domains shown)
VH: EVQLVESGGGLVQPGGSLRLSCAASGFSLNSYGVNWVRQAPGKGLEWVGGINTGGSTYYANWAKGRFTISRDNSKNTLYLQMNSLRAEDTAVYYCARTSGNNVYNYFTLWGQGTLVTVSS
VL: DIQMTQSPSSLSASVGDRVTITCQASQSIPSLLAWYQQKPGKAPKLLIYAPSTLASGVPSRFSGSGSGTDFTLTISSLQPEDFATYYCQSYYYGDNTYNNIFGGGTKVEIK

Kd [4]: 0.13 nM
IC50 [10]: 0.379 nM
EC50 [5]: 0.211 nM
IC50 (TNFR-Fc [11]): 2.46 nM
EC50 [6]: 0.28 nM
EC50 [7]: 0.24 nM
B7: humanized antibody h600_HB_28B7.3 (antibody, V domains shown)
VH: EVQLVESGGGLVQPGGSLRLSCAASGFSLNSHYMIWVRQAPGKGLEWVGIITSSDYIYYARWAKGRFTISRDNSKNTLYLQMNSLRAEDTAVYYCARYNYDDDGELFNLWGQGTLVTVSS
VL: DIQMTQSPSSLSASVGDRVTITCQSSQSIDANNDLAWYQQKPGKAPKLLIYLASKLASGVPSRFSGSGSGTDFTLTISSLQPEDFATYYCLGGYDDDADNTFGGGTKVEIK
notes: also called h600_23_28B7

EC50 [5]: 0.34 nM
IC50 (TNFR-Fc [11]): 3.57 nM
EC50 [6]: 1.13 nM
EC50 [7]: 0.111 nM
B9: humanized antibody clone 4 (taken as h600_23_4) (antibody, V domains shown)
VH: EVQLVESGGGLVQPGGSLRLSCAASGIDLSSYTMGWVRQAPGKGLEWVGFISSSGHTYYANWAKGRFTISRDNSKNTLYLQMNSLRAEDTAVYYCAREGGYGGYDYTGIFNLWGQGTLVTVSS
VL: DIQMTQSPSTLSASVGDRVTITCQATESISSWLAWYQQKPGKAPKLLIYGASTLESGVPSRFSGSGSGTEFTLTISSLQPDDFATYYCQQGYIYTNVDNTFGGGTKVEIK

EC50 [1]: 0.000348 nM
EC50 [2]: 0.0443 nM
binding result [3]: binds
binding result (soluble mouse TNFR2): binds
EC50 [9]: 0.946 nM
B11: chimeric antibody clone 25-103 (rab600_25_103) (antibody, V domains shown)
VH: QEQLKESGGGLVTPGTPLTLTCTVSGIDLSSYAMGWVRQAPGKGLEYIGFIDTGGSTYYANWAKGRFTISRTSTTVDLKIASPTTEDAATYFCANVGARMYLWGPGTLVTVSS
VL: DVVMTQTPASVEAAVGGTVTINCQASQSISNLLAWYQQKPGQPPKLLIYRASTLESGVPSRFKGSGSGTEFTLTISDLECADAATYYCQCSYYGGSYIGAFGGGTEVVVK

The remaining lines, values behind:

B1: chimeric antibody clone 24-25 (rab600_24_25) (antibody, V domains shown)
VH: QSLEESGGGLVKPEGSLTLTCAVSGFDLNSYYWICWARQAPGKGLEWIACIDGGSTGSAYYASWAKGRLSISKASSTTVTLQMTSLTAADTATYFCARVQSYVGYANYGYPNYFNLWGPGTLVTVSS
VL: IEMTQTPSSVSAAVGGTVTINCQSSEDIDSYLAWYQQKPGQPPKLLIYHASYLTSGVPSRFSGSRSGTEFTLTISDLECDDAATYYCQSAYYSSSADNTFGGGTEVVVK
EC50 [1]: 0.189 nM
EC50 [2]: 0.21 nM
binding result [3]: binds
binding result (soluble mouse TNFR2): binds

B2: chimeric antibody clone 24-62 (rab600_24_62) (antibody, V domains shown)
VH: QSLEESGGDLVVPGTSLTLTCTASGFDLSSFYYMCWVRQAPGKGLEWIACIYAVSSGSTYYASWAKGRFTVSRTSSTTATLQMTSLTAADTATYFCARHQSYETYGYVGVVYATYFSLWGPGTLVTVSS
VL: ALVMTQTPASVSAAVGGTVTINCQASEDIDSYLAWYQQKPGQPPKLLIYYASYLTSGVPSRFKGSGSGTEYTLTISGVQCDDAATYYCQSAFYSNNTETAFGGGTEVVVK
EC50 [1]: 0.0958 nM
EC50 [2]: 0.137 nM
binding result [3]: binds
binding result (soluble mouse TNFR2): binds

B3: chimeric antibody clone 24-2 (rab600_24_2) (antibody, V domains shown)
VH: QEQLEESGGGLVQPEGSLALTCKASGFSFSVSYWICWVRQAPGKGLEWIACTDGGDGSSYYASWVNGRFTISKISSTTVTLQMTSLTAADTAIYFCARDRSDVFNLWGPGTLVTVSS
VL: DIVMTQTPASVEAAVGGTVTIKCQAGQSIDSNLAWYQQKPGQPPKLLIYRASTLASGVPSRFKGSGSGTEFALTISDLECADAATYFCQSFYVTISAMVDYPFGGGTEVVVK
EC50 [1]: 0.0742 nM
EC50 [2]: 0.0981 nM
binding result [3]: binds
binding result (soluble mouse TNFR2): no binding

B4: chimeric antibody clone 24-97 (rab600_24_97) (antibody, V domains shown)
VH: QSLEESGGDLVKPGASLTLTCKASGFSFSSGHDMCWVRQAPGKGLEWIACIYPDYDITDYASWVNGRFTISLDNAQNTVFLQMTSLTAADTATYFCARSGYGGFRYGFNLWGPGTLVTVSS
VL: DIVMTQTPASVEVAVGGTVTIKCQASEDIENYLAWYQQKPGQPPKLLIYDASDLTSGVPSRFKGSGSGTQFTLTISDLECADAATYYCQSVYYTSSDNYNNAFGGGTEVVVK
EC50 [1]: 0.086 nM
EC50 [2]: 0.0632 nM
binding result [3]: binds
binding result (soluble mouse TNFR2): binds

B6: chimeric antibody clone 25-31 (rab600_25_31) (antibody, V domains shown)
VH: QEQLKESGGGLVTPGTPLTLTCTASGFSLSSYDMSWVRQAPGKGLEWIGYIWSSGSAYYATWAEGRFTISKTSTTVGLKITSPTTEDTATYFCARRYVGSSYDTWGQGTLVTVSS
VL: AVLTQTPSPVSAAVGGTVTISCQSSQSVSNNNYLSWYQQKPGQPPKLLIYAASYLASGVPPRFSGSGSGTQFTLTISGVQCDDAATYYCLGDYDNDIDHAFGGGTEVVVK
EC50 [1]: 0.038 nM
EC50 [2]: 0.0704 nM
binding result [3]: binds
IC50 (TNFR-Fc [8]): 4.13 nM
binding result (soluble mouse TNFR2): no binding
EC50 [9]: 3.15 nM

B8: chimeric antibody clone 24-124 (rab600_24_124) (antibody, V domains shown)
VH: QEQLVESGGGLVTLGGSLKLSCKASGIDFSSYGISWVRQAPGKGLEWIAYIYPDYGSTDYATWVNGRFTISLDNAQNTVFLQMTSLTAADTATYFCASGYASSSGYYDPKYFGLWGPGTLVTVSS
VL: IKMTQTPASVSAAVGGTVTINCRASEDIESYLAWYQQKPGQPPKLLIYDASDLASGVPSRVKGSGSGTEFTLTISGVRCDDAATYYCQHGFYTSRSDSVFGGGTEVVVK
EC50 [1]: 0.0882 nM
EC50 [2]: 0.137 nM
binding result [3]: binds
IC50 (TNFR-Fc [8]): 2.54 nM
binding result (soluble mouse TNFR2): no binding
EC50 [9]: 0.179 nM

B10: chimeric antibody clone 25-10 (rab600_25_10) (antibody, V domains shown)
VH: QSVEESGGRLVAPGTPLTLTCTVSGIDLSRYAMAWVRQAPGKGLEYIGYIDTGDSTYYATWAKGRFTISRTSTTVHLKIASPTTEDTATYFCTNVGVRMYLWGPGTLVTVSS
VL: B11 VL with N22K, N31S, L32Y, A34S, S91G
EC50 [1]: 0.0235 nM
EC50 [2]: 0.0862 nM
binding result [3]: binds
binding result (soluble mouse TNFR2): binds
EC50 [9]: 0.513 nM

Reference: patent US20220372154A1 (APEXIGEN, published 2022)
